Assay results published in IntAct's records for PubMed 22453338.

B1: Cyclin-D1-binding protein 1 (Homo sapiens), O95273 (parent)
chain: MASATAPAAAVPTLASPLEQLRHLAEELRLLLPRVRVGEAQETTEEFNREMFWRRLNEAAVTVSREATTLTIVFSQLPLPSPQETQKFCEQVHAAIKAFIAVYYLLPKDQGITLRKLVRGATLDIVDGMAQLMEVLSVTPTQSPENNDLISYNSVWVACQQMPQIPRDNKAAALLMLTKNVDFVKDAHEEMEQAVEECDPYSGLLNDTEENNSDNHNHEDDVLGFPSNQDLYWSEDDQELIIPCLALVRASKACLKKIRMLVAENGKKDQVAQLDDIVDISDEISPSVDDLALSIYPPMCHLTVRINSAKLVSVLKKALEITKASHVTPQPEDSWIPLLINAIDHCMNRIKELTQSELEL
partner: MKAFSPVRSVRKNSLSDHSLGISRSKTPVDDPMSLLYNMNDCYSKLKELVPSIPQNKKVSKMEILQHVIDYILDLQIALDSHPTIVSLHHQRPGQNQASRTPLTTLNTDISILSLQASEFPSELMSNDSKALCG
B2: Cyclin-D1-binding protein 1 (Homo sapiens), O95273 (parent)
chain: B1 chain

Variants of: B1
Settings: with id2_human ID2, Q02363

Row | Variant | effect of a mutation on the interaction
1 | MASATAPAAAVPTLASPLEQLRHLAEELRLLLPRVRVGEAQETTEEFNREMFWRRLNEAAVTVSREATTLTIVFSQLPLPSPQETQKFCEQVHAAIKAFIAVYYLLPKDQGITLRKLVRGATLDIVDGMAQLMEVLSVTPTQSPENNDLISYNSVWVACQQMPQIYRDNKAAALLMLTKNVDFVKDAHEEMEQAVEECDPYSGLLNDTEENNSDNHNHEDDVLGFPSNQDLYWSEDDQELIIPCLALVRASKACLKKIRMLVAENGKKDQVAQLDDIVDISDEISPSVDDLALSIYPPMCHLTVRINSAKLVSVLKKALEITKASHVTPQPEDSWIPLLINAIDHCMNRIKELTQSELEL [P166Y] | increasing interaction

Variants of: B1
Settings: with id2_human ID2, Q02363
Remark: another data set of the same source

Row | Variant | effect of a mutation on the interaction
2 | MASATAPAAAVPTLASPLEQLRHLAEELRLLLPRVRVGEAQETTEEFNREMFWRRLNEAAVTVSREATTLTIVFSQLPLPSPQETQKFCEQVHAAIKAFIAVYYLLPKDQGITLRKLVRGATLDIVDGMAQLMEVLSVTPTQSPENNDLISYNSVWVACQQMPQIPRDEKAAALLMLTKNVDFVKDAHEEMEQAVEECDPYSGLLNDTEENNSDNHNHEDDVLGFPSNQDLYWSEDDQELIIPCLALVRASKACLKKIRMLVAENGKKDQVAQLDDIVDISDEISPSVDDLALSIYPPMCHLTVRINSAKLVSVLKKALEITKASHVTPQPEDSWIPLLINAIDHCMNRIKELTQSELEL [N169E] | increasing interaction

Variants of: B1
Settings: with id2_human ID2, Q02363
Remark: another data set of the same source

Row | Variant | effect of a mutation on the interaction
3 | MASATAPAAAVPTLASPLEQLRHLAEELRLLLPRVRVGEAQETTEEFNREMFWRRLNEAAVTVSREATTLTIVFSQLPLPSPQETQKFCEQVHAAIKAFIAVYYLLPKDQGITLRKLVRGATLDIVDGMAQLMEVLSVTPTQSPENNDLISYNSVWVACQQMPQIPRDNKAAALLMLTKNVDFVKDAHEEMEQAVEECDPYSGLLNDTEENNSDNHNHEDDVLGFPSNQDLYWSEDDQELIIPCLALVRASKACLKKIRMLVAENGKKDQFAQLDDIVDISDEISPSVDDLALSIYPPMCHLTVRINSAKLVSVLKKALEITKASHVTPQPEDSWIPLLINAIDHCMNRIKELTQSELEL [V271F] | increasing interaction

Variants of: B1
Settings: with id2_human ID2, Q02363
Remark: another data set of the same source

Row | Variant | effect of a mutation on the interaction
4 | MASATAPAAAVPTLASPLEQLRHLAEELRLLLPRVRVGEAQETTEEFNREMFWRRLNEAAVTVSREATTLTIVFSQLPLPSPQETQKFCEQVHAAIKAFIAVYYLLPKDQGITLRKLVRGATLDIVDGMAQLMEVLSVTPTQSPENNDLISYNSVWVACQQMPQIPRDNKAAALLMLTKNVDFVKDAHEEMEQAVEECDPYSGLLNDTEENNSDNHNHEDDVLGFPSNQDLYWSEDDQELIIPCLALVRASKACLKKIRMLVAENGKKDQVAQLDDIRDISDEISPSVDDLALSIYPPMCHLTVRINSAKLVSVLKKALEITKASHVTPQPEDSWIPLLINAIDHCMNRIKELTQSELEL [V278R] | increasing interaction

Variants of: B2
Settings: with ndf1_mouse Neurod1, Q60867
Sequence of ndf1_mouse Neurod1, Q60867 (Q60867 whole entry): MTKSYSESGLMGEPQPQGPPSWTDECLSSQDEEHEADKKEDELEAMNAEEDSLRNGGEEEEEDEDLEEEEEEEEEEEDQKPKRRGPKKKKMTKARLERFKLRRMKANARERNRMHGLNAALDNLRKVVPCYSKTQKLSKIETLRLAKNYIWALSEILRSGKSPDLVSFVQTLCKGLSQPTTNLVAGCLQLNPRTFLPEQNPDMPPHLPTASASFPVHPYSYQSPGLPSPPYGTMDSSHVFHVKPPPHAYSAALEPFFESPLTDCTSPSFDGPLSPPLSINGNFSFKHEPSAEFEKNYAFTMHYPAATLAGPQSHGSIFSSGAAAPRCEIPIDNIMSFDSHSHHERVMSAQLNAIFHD

Row | Variant | effect of a mutation on the interaction
5 | MASATAPAAAVPTLASPLEQLRHLAEELRLLLPRVRVGEAQETTEEFNREMFWRRLNEAAVTVSREATTLTIVFSQLPLPSPQETQKFCEQVHAAIKAFIAVYYLLPKDQGITLRKLVRGATLDIVDGMAQLMEVLSVTPTQSPENNDLISYNSVWVACQQMPQIYRDNKAAALLMLTKNVDFVKDAHEEMEQAVEECDPYSGLLNDTEENNSDNHNHEDDVLGFPSNQDLYWSEDDQELIIPCLALVRASKACLKKIRMLVAENGKKDQVAQLDDIVDISDEISPSVDDLALSIYPPMCHLTVRINSAKLVSVLKKALEITKASHVTPQPEDSWIPLLINAIDHCMNRIKELTQSELEL [P166Y] | increasing interaction

Variants of: B2
Settings: with ndf1_mouse Neurod1, Q60867
Remark: another data set of the same source

Row | Variant | effect of a mutation on the interaction
6 | MASATAPAAAVPTLASPLEQLRHLAEELRLLLPRVRVGEAQETTEEFNREMFWRRLNEAAVTVSREATTLTIVFSQLPLPSPQETQKFCEQVHAAIKAFIAVYYLLPKDQGITLRKLVRGATLDIVDGMAQLMEVLSVTPTQSPENNDLISYNSVWVACQQMPQIPRDNKAAALLMLTKNVDFVKDAHEEMEQAVEECDPYSGLLNDTEENNSDNHNHEDDVLGFPSNQDLYWSEDDQELIIPCLALVRASKACLKKIRMLVAENGKKDQFAQLDDIVDISDEISPSVDDLALSIYPPMCHLTVRINSAKLVSVLKKALEITKASHVTPQPEDSWIPLLINAIDHCMNRIKELTQSELEL [V271F] | increasing interaction

Variants of: B2
Settings: with ndf1_mouse Neurod1, Q60867
Remark: another data set of the same source

Row | Variant | effect of a mutation on the interaction
7 | MASATAPAAAVPTLASPLEQLRHLAEELRLLLPRVRVGEAQETTEEFNREMFWRRLNEAAVTVSREATTLTIVFSQLPLPSPQETQKFCEQVHAAIKAFIAVYYLLPKDQGITLRKLVRGATLDIVDGMAQLMEVLSVTPTQSPENNDLISYNSVWVACQQMPQIPRDNKAAALLMLTKNVDFVKDAHEEMEQAVEECDPYSGLLNDTEENNSDNHNHEDDVLGFPSNQDLYWSEDDQELIIPCLALVRASKACLKKIRMLVAENGKKDQVAQLDDIRDISDEISPSVDDLALSIYPPMCHLTVRINSAKLVSVLKKALEITKASHVTPQPEDSWIPLLINAIDHCMNRIKELTQSELEL [V278R] | increasing interaction

Variants of: B2
Settings: with ndf1_mouse Neurod1, Q60867
Remark: another data set of the same source

Row | Variant | effect of a mutation on the interaction
8 | MASATAPAAAVPTLASPLEQLRHLAEELRLLLPRVRVGEAQETTEEFNREMFWRRLNEAAVTVSREATTLTIVFSQLPLPSPQETQKFCEQVHAAIKAFIAVYYLLPKDQGITLRKLVRGATLDIVDGMAQLMEVLSVTPTQSPENNDLISYNSVWVACQQMPQIPRDEKAAALLMLTKNVDFVKDAHEEMEQAVEECDPYSGLLNDTEENNSDNHNHEDDVLGFPSNQDLYWSEDDQELIIPCLALVRASKACLKKIRMLVAENGKKDQVAQLDDIVDISDEISPSVDDLALSIYPPMCHLTVRINSAKLVSVLKKALEITKASHVTPQPEDSWIPLLINAIDHCMNRIKELTQSELEL [N169E] | increasing interaction
